# B1: PBS3 (dsDNA)
# DNA 1: GAGGGAAAATTGGATTCCCCG
# DNA 2: CGGGGAATCCAATTTTCCCTC
# Biological target: His6-Phox2a (1-149) (Mus musculus, UniProt Q62066 Q62066:1-149)
# Assay: footprint; DNase I footprint
# Details: tags: N-terminal His6, pET15b, E. coli BL21(DE3); label: 32P
# His6-Phox2a (1-149), sequence (Q62066 1-149, one chain of several): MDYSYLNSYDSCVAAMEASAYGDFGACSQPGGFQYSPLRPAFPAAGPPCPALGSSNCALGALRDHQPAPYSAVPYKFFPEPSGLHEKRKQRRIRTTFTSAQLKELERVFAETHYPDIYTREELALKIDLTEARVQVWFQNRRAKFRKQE
binder,measurement,value
B1,binding result,binds

# Source: US20040024191, “Multimerized DBH enhancer domains” (published 2004)
